Data published in US20090178146.

T1: GST-fused peptide corresponding to the SP-2 motif (amino acids 206-237) of NFAT1, wild type
T1 sequence (Q13469 whole entry, species assumed, looked up): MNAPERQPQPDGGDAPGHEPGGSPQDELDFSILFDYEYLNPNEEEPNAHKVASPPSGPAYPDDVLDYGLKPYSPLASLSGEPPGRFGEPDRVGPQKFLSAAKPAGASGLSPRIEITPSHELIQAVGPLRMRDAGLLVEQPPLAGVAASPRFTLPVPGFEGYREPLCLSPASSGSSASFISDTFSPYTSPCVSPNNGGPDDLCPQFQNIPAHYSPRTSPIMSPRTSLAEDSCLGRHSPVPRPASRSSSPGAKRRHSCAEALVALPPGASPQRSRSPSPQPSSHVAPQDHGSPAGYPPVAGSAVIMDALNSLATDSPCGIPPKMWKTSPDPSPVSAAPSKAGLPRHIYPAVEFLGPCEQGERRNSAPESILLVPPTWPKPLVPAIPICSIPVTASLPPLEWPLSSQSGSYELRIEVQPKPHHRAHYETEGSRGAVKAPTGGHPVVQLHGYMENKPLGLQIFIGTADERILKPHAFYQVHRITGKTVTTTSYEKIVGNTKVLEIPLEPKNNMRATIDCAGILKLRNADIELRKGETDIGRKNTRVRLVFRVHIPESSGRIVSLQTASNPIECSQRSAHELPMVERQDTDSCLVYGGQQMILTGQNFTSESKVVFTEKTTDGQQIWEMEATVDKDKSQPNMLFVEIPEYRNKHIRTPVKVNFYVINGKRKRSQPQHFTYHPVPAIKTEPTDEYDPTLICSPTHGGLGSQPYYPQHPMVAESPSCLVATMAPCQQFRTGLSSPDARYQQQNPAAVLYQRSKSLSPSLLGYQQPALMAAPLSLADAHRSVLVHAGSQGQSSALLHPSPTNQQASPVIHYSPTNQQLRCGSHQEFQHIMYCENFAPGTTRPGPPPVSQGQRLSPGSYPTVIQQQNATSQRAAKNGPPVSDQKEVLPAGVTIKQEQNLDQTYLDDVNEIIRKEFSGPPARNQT

T2: GST-NFAT1(1-415) fusion protein (entire NFAT1 regulatory domain) expressed in bacterial cells
T2 sequence (Q13469 whole entry, species assumed, looked up): T1 sequence (Q13469 whole entry, species assumed, looked up)

B1: FLAG-tagged DYRK2 expressed in HEK293 cells and immunoprecipitated with anti-FLAG antibody (protein)
chain: MNDHLHVGSHAHGQIQVQQLFEDNSNKRTVLTTQPNGLTTVGKTGLPVVPERQLDSIHRRQGSSTSLKSMEGMGKVKATPMTPEQAMKQYMQKLTAFEHHEIFSYPEIYFLGLNAKKRQGMTGGPNNGGYDDDQGSYVQVPHDHVAYRYEVLKVIGKGSFGQVVKAYDHKVHQHVALKMVRNEKRFHRQAAEEIRILEHLRKQDKDNTMNVIHMLENFTFRNHICMTFELLSMNLYELIKKNKFQGFSLPLVRKFAHSILQCLDALHKNRIIHCDLKPENILLKQQGRSGIKVIDFGSSCYEHQRVYTYIQSRFYRAPEVILGARYGMPIDMWSLGCILAELLTGYPLLPGEDEGDQLACMIELLGMPSQKLLDASKRAKNFVSSKGYPRYCTVTTLSDGSVVLNGGRSRRGKLRGPPESREWGNALKGCDDPLFLDFLKQCLEWDPAVRMTPGQALRHPWLRRRLPKPPTGEKTSVKRITESTGAITSISKLPPPSSSASKLRTNLAQMTDANGNIQQRTVLPKLVS
B2: recombinant DYRK2 protein kinase (Upstate Biotechnology), bacterially expressed (protein)
chain: B1 chain
B3: FLAG-tagged IRAK4 expressed in HEK293 cells and immunoprecipitated with anti-FLAG antibody (protein)
chain: MNKPITPSTYVRCLNVGLIRKLSDFIDPQEGWKKLAVAIKKPSGDDRYNQFHIRRFEALLQTGKSPTSELLFDWGTTNCTVGDLVDLLIQNEFFAPASLLLPDAVPKTANTLPSKEAITVQQKQMPFCDKDRTLMTPVQNLEQSYMPPDSSSPENKSLEVSDTRFHSFSFYELKNVTNNFDERPISVGGNKMGEGGFGVVYKGYVNNTTVAVKKLAAMVDITTEELKQQFDQEIKVMAKCQHENLVELLGFSSDGDDLCLVYVYMPNGSLLDRLSCLDGTPPLSWHMRCKIAQGAANGINFLHENHHIHRDIKSANILLDEAFTAKISDFGLARASEKFAQTVMTSRIVGTTAYMAPEALRGEITPKSDIYSFGVVLLEIITGLPAVDEHREPQLLLDIKEEIEDEEKTIEDYIDKKMNDADSTSVEAMYSVASQCLHEKKNKRPDIKKVQQLLQEMTAS
B4: FLAG-tagged PRKG1 expressed in HEK293 cells and immunoprecipitated with anti-FLAG antibody (protein)
chain: MSELEEDFAKILMLKEERIKELEKRLSEKEEEIQELKRKLHKCQSVLPVPSTHIGPRTTRAQGISAEPQTYRSFHDLRQAFRKFTKSERSKDLIKEAILDNDFMKNLELSQIQEIVDCMYPVEYGKDSCIIKEGDVGSLVYVMEDGKVEVTKEGVKLCTMGPGKVFGELAILYNCTRTATVKTLVNVKLWAIDRQCFQTIMMRTGLIKHTEYMEFLKSVPTFQSLPEEILSKLADVLEETHYENGEYIIRQGARGDTFFIISKGTVNVTREDSPSEDPVFLRTLGKGDWFGEKALQGEDVRTANVIAAEAVTCLVIDRDSFKHLIGGLDDVSNKAYEDAEAKAKYEAEAAFFANLKLSDFNIIDTLGVGGFGRVELVQLKSEESKTFAMKILKKRHIVDTRQQEHIRSEKQIMQGAHSDFIVRLYRTFKDSKYLYMLMEACLGGELWTILRDRGSFEDSTTRFYTACVVEAFAYLHSKGIIYRDLKPENLILDHRGYAKLVDFGFAKKIGFGKKTWTFCGTPEYVAPEIILNKGHDISADYWSLGILMYELLTGSPPFSGPDPMKTYNIILRGIDMIEFPKKIAKNAANLIKKLCRDNPSERLGNLKNGVKDIQKHKWFEGFNWEGLRKGTLTPPIIPSVASPTDTSNFDSFPEDNDEPPPDDNSGWDIDF

What was measured:
[1] = target: T1, GST-fused peptide corresponding to the …
[2] = target: GST-fused peptide corresponding to the SP-3 motif (amino acids 264-295) of NFAT1, wild type
[3] = target: T2, GST-NFAT1(1-415) fusion protein (entire …)
[4] = target: GST-fused SP-3 peptide of NFAT1 (amino acids 264-295) with Ser>Ala substitutions in the serines phosphorylated in cells

Protein | in vitro kinase assay, phosphorylation of GST-peptide [1] | in vitro kinase assay, phosphorylation of GST-peptide [2] | in vitro kinase assay, phosphorylation of GST-NFAT1 (1-415) (autoradiography) [3] | in vitro kinase assay with recombinant kinase, phosphorylation of GST-peptide [4] | in vitro kinase assay with recombinant kinase, phosphorylation of GST-peptide [2]
B1 | phosphorylated peptides corresponding to the conserved SP-3 but not the SP-2 motif of the NFAT regulatory domain in vitro | phosphorylated peptides corresponding to the conserved SP-3 but not the SP-2 motif of the NFAT regulatory domain in vitro | Three novel candidates-PRKG1, DYRK2 and IRAK4-showed strong activity in this assay |  | 
B2 |  |  |  | neither kinase phosphorylated an SP-3 peptide with Ser>Ala substitutions in the specific serine residues known to be phosphorylated in cells | DYRK2 and DYRK1A both displayed strong and selective kinase activity towards the SP-3 motif of NFAT1
B3 |  |  | Three novel candidates-PRKG1, DYRK2 and IRAK4-showed strong activity in this assay |  | 
B4 |  |  | Three novel candidates-PRKG1, DYRK2 and IRAK4-showed strong activity in this assay |  | 
